The values below come from patent US20100015126A1, “Methods of Binding of Cross-Beta Structures By Chaperones” (priority 2006, published 2010).

The test has as its target T1, BiP-Sepharose (Homo sapiens, UniProt P11021).
T1 construct: The human BiP gene except the signal peptide encoding region was obtained from Geneart (Germany); linker […]; made in house; host or cells: HEK 293E cells, transient transfection, PABC674 vector; secreted into the medium
Kind of test: BiP-Sepharose extraction of proteins from patient plasma, serum, synovial fluid and mass-spectrometric identification. It counts as binding. As for the experimental part: BiP was coated on CNBr-Sepharose (GE-Healthcare, Amersham Biosciences). Immobilization of BiP was performed essentially as described elsewhere in this application for NHS-Sepharose. CNBr-matrix was dissolved at 200 mg/ml in 1 mM HCl and treated the same as the NHS-matrix, except for an additional 5 minutes activation step in 1 mM HCl on a roller device before washing in this buffer. BiP was diluted in immobilization buffer (50 mM NaCl and 40 mM NaHCO3) to a concentration of 820 μg/ml. A total volume of 2 ml BiP solution (1640 μg BiP) was incubated with 360 mg beads. Negative control matrix was exposed to immobilization buffer, only. After overnight immobilization matrix was blocked with Tris and washed.
Six samples were incubated with the BiP-Sepharose, IgIV-Sepharose and the control-Sepharose: Normal pooled plasma, plasma of a patient I or of a patient II, with AL amyloidosis, serum of a patient III with RA (Rheumatoid Factor (RF) titer 682), control serum and synovial fluid of a patient IV with RA (RF titer 23). All samples were diluted 20× in HBS and applied to 200 μl beads in two volumes of 500 μl. One volume was incubated for 4 h at RT and supernatant was discarded after centrifugation (2 minutes at 1400 rpm). Subsequently, the second volume was applied to the same matrix and incubated overnight on a roller device at 4° C. […] To collect the eluates, the matrices were centrifuged and the two eluates were pooled for each sample.
Protein digests were desalted as described (Rappsilber et al., 2003), vacuum dried and dissolved in 2.5% formic acid.
For analysis of peptide mixtures, an Agilent 1100 HPLC system (Agilent Technologies) connected to a Thermo Finnigan LTQ-MS (Thermo Electron, Bremen, Germany) was used. Protein digests were injected on a trap column (Reprosil C18 RP (Dr Maisch, Germany), 20 mm×100 μm I.D.) at 5 μl/minute. Subsequently, the peptides were transferred with a split-reduced flow rate of 100 nL/minute solvent A (0.1 M acetic acid) on the analytical column (Reprosil C18 RP, 20 cm×50 μm I.D.). […] The column effluent was directly introduced into the ESI source of the mass spectrometer via a butt-connected nano-ESI emitter (New Objectives, Woburn, Mass.). The mass spectrometer was operated in the positive ion mode and parent ions were selected for fragmentation in data-dependent mode.
After mass spectrometric measurements, peak lists were generated using BioWorks software (Thermo Electron, Bremen, Germany). Protein identification was performed using Mascot software (www.matrixscience.com) by searching the IPIhuman database (version 3.24, downloaded from ftp://ftp.ebi.ac.uk/pub/databases/IPI/current) using the following settings: fully tryptic peptides, peptide tolerance 0.8 Da, MS/MS tolerance 0.9 Da, 1 missed cleavage allowed, carbamidomethyl (Cys) and oxidation (Met) as fixed and variable modification, respectively. The Scaffold software package (www.proteomesoftware.com) was used to parse the data and to filter peptides at a confidence level of 95%, allowing only protein identification with at least 2 peptides identified.

Where [1] appears, read: Sample B4: eluate of BiP-Sepharose contacted with RA patient III serum.
[2] abbreviates: Sample B3: eluate of BiP-Sepharose contacted with AL amyloidosis patient II plasma.

T1 sequence (P11021 19-654): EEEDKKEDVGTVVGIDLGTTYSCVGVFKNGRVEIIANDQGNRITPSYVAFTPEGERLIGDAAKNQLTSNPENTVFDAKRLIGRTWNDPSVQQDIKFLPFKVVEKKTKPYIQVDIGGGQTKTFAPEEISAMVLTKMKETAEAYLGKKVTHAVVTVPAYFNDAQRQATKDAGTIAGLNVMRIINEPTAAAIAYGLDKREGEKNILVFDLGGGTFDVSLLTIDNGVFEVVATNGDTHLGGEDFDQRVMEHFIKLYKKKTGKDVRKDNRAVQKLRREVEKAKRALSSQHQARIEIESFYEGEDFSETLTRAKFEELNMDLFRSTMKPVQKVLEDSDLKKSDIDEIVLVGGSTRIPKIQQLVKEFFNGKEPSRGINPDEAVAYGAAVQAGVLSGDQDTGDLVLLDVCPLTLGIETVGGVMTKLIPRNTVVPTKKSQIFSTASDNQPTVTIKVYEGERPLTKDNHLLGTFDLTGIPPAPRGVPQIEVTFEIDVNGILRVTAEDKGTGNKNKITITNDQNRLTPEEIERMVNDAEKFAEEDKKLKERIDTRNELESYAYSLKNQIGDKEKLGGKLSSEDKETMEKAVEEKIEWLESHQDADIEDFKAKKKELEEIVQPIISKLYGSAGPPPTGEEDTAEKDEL

B1: Ig lambda chain V-III region SH (protein)
chain: SELTQDPAVSVALGQTVRITCQGDSLRSYYASWYQQKPGQAPVLVIYGKNNRPSGIPDRFSGSSSGNTASLTITGAQAEDEADYYCNSRDSS
On to B1, for which, under setting [1], the “# of peptides in sample A#” value is 2.

B2: Dapper homolog 1 (hDPR1) (Heptacellular carcinoma novel gene 3)/Dapper, antagonist of beta-catenin, homolog 1 (Xenopus laevis) (protein)
chain: MKPSPAGTAKELEPPAPARGEQRTAEPEGRWREKGEADTERQRTRERQEATLAGLAELEYLRQRQELLVRGALRGAGGAGAAAPRAGELLGEAAQRSRLEEKFLEENILLLRKQLNCLRRRDAGLLNQLQELDKQISDLRLDVEKTSEEHLETDSRPSSGFYELSDGASGSLSNSSNSVFSECLSSCHSSTCFCSPLEATLSLSDGCPKSADLIGLLEYKEGHCEDQASGAVCRSLSTPQFNSLDVIADVNPKYQCDLVSKNGNDVYRYPSPLHAVAVQSPMFLLCLTGNPLREEDRLGNHASDICGGSELDAVKTDSSLPSPSSLWSASHPSSSKKMDGYILSLVQKKTHPVRTNKPRTSVNADPTKGLLRNGSVCVRAPGGVSQGNSVNLKNSKQACLPSGGIPSLNNGTFSPPKQWSKESKAEQAESKRVPLPEGCPSGAASDLQSKHLPKTAKPASQEHARCSAIGTGESPKESAQLSGASPKESPSRGPAPPQENKVVQPLKKMSQKNSLQGVPPATPPLLSTAFPVEERPALDFKSEGSSQSLEEAHLVKAQFIPGQQPSVRLHRGHRNMGVVKNSSLKHRGPALQGLENGLPTVREKTRAGSKKCRFPDDLDTNKKLKKASSKGRKSGGGPEAGVPGRPAGGGHRAGSRAHGHGREAVVAKPKHKRTDYRRWKSSAEISYEEALRRARRGRRENVGLYPAPVPLPYASPYAYVASDSEYSAECESLFHSTVVDTSEDEQSNYTTNCFGDSESSVSEGEFVGESTTTSDSEESGGLIWSQFVQTLPIQTVTAPDLHNHPAKTFVKIKASHNLKKKILRFRSGSLKLMTTV
As to B2, the “# of peptides in sample A#” value under setting [1] came out at 2.

B3: CDNA FLJ90170 fis, clone MAMMA1000370, highly similar to Ig alpha-1 chain C region/Immunoglobulin heavy constant alpha 1 (protein, UniProt P01876 1-398, looked up)
Immunoglobulin heavy constant …: ASPTSPKVFPLSLCSTQPDGNVVIACLVQGFFPQEPLSVTWSESGQGVTARNFPPSQDASGDLYTTSSQLTLPATQCLAGKSVTCHVKHYTNPSQDVTVPCPVPSTPPTPSPSTPPTPSPSCCHPRLSLHRPALEDLLLGSEANLTCTLTGLRDASGVTFTWTPSSGKSAVQGPPERDLCGCYSVSSVLPGCAEPWNHGKTFTCTAAYPESKTPLTATLSKSGNTFRPEVHLLPPPSEELALNELVTLTCLARGFSPKDVLVRWLQGSQELPREKYLTWASRQEPSQGTTTFAVTSILRVAAEDWKKGDTFSCMVGHEALPLAFTQKTIDRLADWQMPPPYVVLDLPQETLEEETPGANLWPTTITFLTLFLLSLFYSTALTVTSVRGPSGNREGPQY
As for B3, the “# of peptides in sample A#” value is listed as 2 under setting [2] and 17 under setting [1].

B4: CD5 antigen-like precursor (SP-alpha, CT-2, IgM-associated peptide)/CD5 molecule-like (protein)
chain: SPSGVRLVGGLHRCEGRVEVEQKGQWGTVCDDGWDIKDVAVLCRELGCGAASGTPSGILYEPPAEKEQKVLIQSVSCTGTEDTLAQCEQEEVYDCSHDEDAGASCENPESSFSPVPEGVRLADGPGHCKGRVEVKHQNQWYTVCQTGWSLRAAKVVCRQLGCGRAVLTQKRCNKHAYGRKPIWLSQMSCSGREATLQDCPSGPWGKNTCNHDEDTWVECEDPFDLRLVGGDNLCSGRLEVLHKGVWGSVCDDNWGEKEDQVVCKQLGCGKSLSPSFRDRKCYGPGVGRIWLDNVRCSGEEQSLEQCQHRFWGFHDCTHQEDVAVICSG
For the molecule B4, the “# of peptides in sample A#” value under setting [1] was 1.

B5: Complement factor H-related protein 3 precursor/Complement factor H-related 3 (FHR-3, H factor-like protein 3, DOWN16)/Complement factor H-related 3, isoform CRA_c (protein)
chain: QVKPCDFPDIKHGGLFHENMRRPYFPVAVGKYYSYYCDEHFETPSGSYWDYIHCTQNGWSPAVPCLRKCYFPYLENGYNQNYGRKFVQGNSTEVACHPGYGLPKAQTTVTCTEKGWSPTPRCIRVRTCSKSDIEIENGFISESSSIYILNKEIQYKCKPGYATADGNSSGSITCLQNGWSAQPICINSSEKCGPPPPISNGDTTSFLLKVYVPQSRVEYQCQPYYELQGSNYVTCSNGEWSEPPRCIHPCIITEENMNKNNIKLKGRSDRKYYAKTGDTIEFMCKLGYNANTSILSFQAVCREGIVEYPRCE
With B5, under setting [2], the “# of peptides in sample A#” value is 1.

B6: V1-3 protein (Fragment) (protein)
chain: QSALTQPRSVSGSPGQSVTISCTGTSSDVGGYNYVSWYQQHPGKAPKLMIYDVSKRPSGVPDRFSGSKSGNTASLTISGLQAEDEADYYCCSYAGSYTFH
Regarding B6, the “# of peptides in sample A#” value was determined as 2 under setting [2] and 1 under setting [1].

B7: Immunoglobulin heavy constant mu/Full-length cDNA clone CS0DD006YL02 of Neuroblastoma of Homo sapiens (protein, UniProt P01871 1-474, looked up)
Immunoglobulin heavy constant …: GSASAPTLFPLVSCENSPSDTSSVAVGCLAQDFLPDSITFSWKYKNNSDISSTRGFPSVLRGGKYAATSQVLLPSKDVMQGTDEHVVCKVQHPNGNKEKNVPLPVIAELPPKVSVFVPPRDGFFGNPRKSKLICQATGFSPRQIQVSWLREGKQVGSGVTTDQVQAEAKESGPTTYKVTSTLTIKESDWLGQSMFTCRVDHRGLTFQQNASSMCVPDQDTAIRVFAIPPSFASIFLTKSTKLTCLVTDLTTYDSVTISWTRQNGEAVKTHTNISESHPNATFSAVGEASICEDDWNSGERFTCTVTHTDLPSPLKQTISRPKGVALHRPDVYLLPPAREQLNLRESATITCLVTGFSPADVFVQWMQRGQPLSPEKYVTSAPMPEPQAPGRYFAHSILTVSEEEWNTGETYTCVVAHEALPNRVTERTVDKSTEGEVSADEEGFENLWATASTFIVLFLLSLFYSTTVTLFKVK
Turning to B7, the “# of peptides in sample A#” value runs as follows: under setting [2], 4; under setting [1], 10.

B8: Immunoglobulin heavy constant gamma 3 (G3m marker)/Ig gamma-3 chain C region (Heavy chain disease protein, HDC) (protein)
chain: ASTKGPSVFPLAPCSRSTSGGTAALGCLVKDYFPEPVTVSWNSGALTSGVHTFPAVLQSSGLYSLSSVVTVPSSSLGTQTYTCNVNHKPSNTKVDKRVELKTPLGDTTHTCPRCPEPKSCDTPPPCPRCPEPKSCDTPPPCPRCPEPKSCDTPPPCPRCPAPELLGGPSVFLFPPKPKDTLMISRTPEVTCVVVDVSHEDPEVQFKWYVDGVEVHNAKTKPREEQYNSTFRVVSVLTVLHQDWLNGKEYKCKVSNKALPAPIEKTISKTKGQPREPQVYTLPPSREEMTKNQVSLTCLVKGFYPSDIAVEWESSGQPENNYNTTPPMLDSDGSFFLYSKLTVDKSRWQQGNIFSCSVMHEALHNRFTQKSLSLSPGK
With B8, the “# of peptides in sample A#” value is 2 (Sample B2: eluate of BiP-Sepharose contacted with AL amyloidosis patient I plasma) and 2 under setting [2].
